# US12076374B1, “Anti-microbial and anti-inflammatory compositions and methods for treating enteric diseases in animals” (Vets Plus, Inc., priority 2019, dated 2024)
# B1: ovotransferrin (protein, UniProt P02789 20-705, looked up)
# Ovotransferrin: APPKSVIRWCTISSPEEKKCNNLRDLTQQERISLTCVQKATYLDCIKAIANNEADAISLDGGQAFEAGLAPYKLKPIAAEVYEHTEGSTTSYYAVAVVKKGTEFTVNDLQGKTSCHTGLGRSAGWNIPIGTLLHRGAIEWEGIESGSVEQAVAKFFSASCVPGATIEQKLCRQCKGDPKTKCARNAPYSGYSGAFHCLKDGKGDVAFVKHTTVNENAPDQKDEYELLCLDGSRQPVDNYKTCNWARVAAHAVVARDDNKVEDIWSFLSKAQSDFGVDTKSDFHLFGPPGKKDPVLKDLLFKDSAIMLKRVPSLMDSQLYLGFEYYSAIQSMRKDQLTPSPRENRIQWCAVGKDEKSKCDRWSVVSNGDVECTVVDETKDCIIKIMKGEADAVALDGGLVYTAGVCGLVPVMAERYDDESQCSKTDERPASYFAVAVARKDSNVNWNNLKGKKSCHTAVGRTAGWVIPMGLIHNRTGTCNFDEYFSEGCAPGSPPNSRLCQLCQGSGGIPPEKCVASSHEKYFGYTGALRCLVEKGDVAFIQHSTVEENTGGKNKADWAKNLQMDDFELLCTDGRRANVMDYRECNLAEVPTHAVVVRPEKANKIRDLLERQEKRFGVNGSEKSKFMMFESQNKDLLFKDLTKCLFKVREGTTYKEFLGDKFYTVISSLKTCNPSDILQMCSFLEGK
# Tests used:
# Type in all cases: in vivo
# gut microbiome = experiment: Fecal 16S rRNA microbiome analysis of newly weaned piglets with diarrhea
# Excerpt: The microbiome of newly weaned piglets with diarrhea was examined when treated with components of the invention. Fecal samples of N=3 control (C) newly weaned piglets without diarrhea (D) and for N=6 newly weaned piglets that did have diarrhea were examined. 3 of these piglets with diarrhea were randomly selected and treated (T3) with 2.5 grams/piglet/day with ovotransferrin by mixing the ovotransferrin into dry feed for 5 consecutive days. Fecal samples were taken from the Diarrhea pigs, the Treated piglets and Control piglets after 5 days trial.
# Fecal samples then had DNA was extracted using the PowerSoil DNA extraction kit (QIAGEN). Extracted DNA was then sequenced where the V4 variable region of the bacterial 16S rRNA gene was amplified (Primers 515F and 806R) and libraries constructed using a dual index approach1. 16SrRNA libraries were sequenced on a MiSeq V3 instrument (Illumina), targeting 2×300 PE reads. Bioinformatics occurred by processing of amplicons that was based on protocols that rely on several open-source software (FastQC2, cutadapt3, bbmap4 and the DADA25 plugin within QIIME26) to remove adaptors and primer sequences, merge PE reads, filter out low quality reads and generate counts of unique Amplicon Sequence Variants (ASVs) or unique taxonomic groups that represent the abundance of species and/or strains in each sample. […]
# PEDV = PEDV newborn piglets, dose response of ovotransferrin drench with or without ORS; details: for % Survival: 100 ml drench twice daily, after 5 days
# Eimeria tenella = experiment: E. tenella infection (coccidiosis) in broiler chickens, growth performance and oocysts
# [1] = 28-d feeding trial in weaned pigs with diarrhea, fecal score and growth performance
# Protocol: Weaning can be a stressful time for performance animals that are transitioning to new food and newly encountering enteric pathogens. These factors can result in diarrhea to varying degrees. The objective of this study was to evaluate the effect of supplementing dietary ovotransferrin of the invention to pigs that had slight diarrhea within a week upon weaning. Growth performance and fecal score were measured. […] Pigs with diarrhea were housed in the nursery pens with 3 pigs per pen and allowed free access to the diet and water ad-libitum for the entire experimental period. Then, they were treated with a solution mixed with electrolytes and ovotransferrin by drenching for 3 days. Ovotransferrin was produced as described in example 1. The pigs were fed test diets containing 0, 0.5, and 1.0% ovotransferrin of the invention. Body weight were recorded at day 0 (study initiation), day 7, 14, 21, and 28 postweaning. Average daily gain (ADG), average daily feed intake (ADFI) and gain:feed (G:F) ratio were calculated weekly from day 7-28 postweaning. Corn-soybean meal-based diets were used for 28 days with 2 phases (Phase 1: day 0-14 postweaning and Phase 2: day 15-28 postweaning). Ovotransferrin was added to the diets by replacing corn starch proportionally. Fecal score was recorded daily through day 14. Body weight and feed consumption were recorded weekly for the diarrhea pigs.
# [2] = 0.5% ovotransferrin in diet, d 7-14
# [3] = 0.5% ovotransferrin in diet, d 7-28
# [4] = 0.5% ovotransferrin in diet, d 14-21
# [5] = 0.5% ovotransferrin in diet, d 21-28
# [6] = 1% ovotransferrin in diet, d 7-14
# [7] = 1% ovotransferrin in diet, d 7-28
# [8] = 1% ovotransferrin in diet, d 14-21
# [9] = 1% ovotransferrin in diet, d 21-28
molecule,measurement,setting,value
B1,"Microbiome diversity (Shannon index, Bray-Curtis PCoA)","gut microbiome; 2.5 grams/piglet/day in dry feed for 5 consecutive days, fecal samples",brought the microbiome diversity back to levels similar to the control piglets
same,"Abundance of Veilloneaceae, Entreobacteriaceae, Paraprevotellaceae and Treponema","gut microbiome; 2.5 grams/piglet/day in dry feed for 5 days, indicator species analysis",Reductions to the initial control baselines
same,% Survival,PEDV; 2 grams of ovotransferrin in water,40%
same,Defecations/day/group,"PEDV; 2 grams of ovotransferrin, Day 0",30 Defecations/day/group
same,Defecations/day/group,"PEDV; 2 grams of ovotransferrin, Day 1",18 Defecations/day/group
same,Defecations/day/group,"PEDV; 2 grams of ovotransferrin, Day 3",14 Defecations/day/group
same,Defecations/day/group,"PEDV; 2 grams of ovotransferrin, Day 5",12 Defecations/day/group
same,% Survival,PEDV; 5 grams of ovotransferrin in water,60%
same,Defecations/day/group,"PEDV; 5 grams of ovotransferrin, Day 0",26 Defecations/day/group
same,Defecations/day/group,"PEDV; 5 grams of ovotransferrin, Day 1",18 Defecations/day/group
same,Defecations/day/group,"PEDV; 5 grams of ovotransferrin, Day 3",15 Defecations/day/group
same,Defecations/day/group,"PEDV; 5 grams of ovotransferrin, Day 5",12 Defecations/day/group
same,Weight (g) in chickens infected with E. tenella,"Eimeria tenella; 0.5% ovotransferrin in feed day 7 through 21, Day 7",110 ± 5 g
same,Weight (g) in chickens infected with E. tenella,"Eimeria tenella; 0.5% ovotransferrin in feed, Day 14 (day of infection)",283 ± 10 g
same,Weight (g) in chickens infected with E. tenella,"Eimeria tenella; 0.5% ovotransferrin in feed, Day 21",470 ± 15 g
same,Weight (g) in chickens infected with E. tenella,"Eimeria tenella; 1.0% ovotransferrin in feed, Day 7",115 ± 6 g
same,Weight (g) in chickens infected with E. tenella,"Eimeria tenella; 1.0% ovotransferrin in feed, Day 14",293 ± 14 g
same,Weight (g) in chickens infected with E. tenella,"Eimeria tenella; 1.0% ovotransferrin in feed, Day 21",529 ± 22 g
same,Weight (g) in chickens infected with E. tenella,"Eimeria tenella; 2.0% ovotransferrin in feed, Day 7",115 ± 6 g
same,Weight (g) in chickens infected with E. tenella,"Eimeria tenella; 2.0% ovotransferrin in feed, Day 14",293 ± 14 g
same,Weight (g) in chickens infected with E. tenella,"Eimeria tenella; 2.0% ovotransferrin in feed, Day 21",571 ± 15 g
same,Oocysts count in fecal sample,"Eimeria tenella; as compared with positive infected control, *p<0.01",significantly lower
same,Histopathology of cecum,"Eimeria tenella; cecum samples at end of experiment, versus positive infected control",normal structures of cecal epithelium
same,E. tenella infection,Eimeria tenella; given alone in feed,inhibited E. tenella infection
same,Feed conversion rate,"Eimeria tenella; treated groups, E. tenella infected broiler chickens",higher
same,Fecal score,"[1]; 0.5% ovotransferrin in diet, d 0-7, scale ≤1 normal to 4 liquid, severe diarrhea",1.81
same,Fecal score,"[1]; 0.5% ovotransferrin in diet, d 0-14 (Phase 1), scale ≤1 normal to 4 severe diarrhea",1.80
same,Fecal score,"[1]; 0.5% ovotransferrin in diet, d 0-28 (Overall), scale ≤1 normal to 4 severe diarrhea",1.68
same,ADFI (average daily feed intake),[1]; [2],581.17 g/day
same,ADG (average daily gain),[1]; [2],356.06 g/day
same,G:F (gain:feed ratio),[1]; [2],0.613
same,Fecal score,"[1]; 0.5% ovotransferrin in diet, d 7-14, scale ≤1 normal to 4 severe diarrhea",1.79
same,ADFI (average daily feed intake),[1]; [3],868.33 g/day
same,ADG (average daily gain),[1]; [3],540.76 g/day
same,G:F (gain:feed ratio),[1]; [3],0.623
same,Body weight,"[1]; 0.5% ovotransferrin in diet, d 7 postweaning",7.87 kg
same,Body weight,"[1]; 0.5% ovotransferrin in diet, d 14",10.37 kg
same,ADFI (average daily feed intake),[1]; [4],933.98 g/day
same,ADG (average daily gain),[1]; [4],566.02 g/day
same,G:F (gain:feed ratio),[1]; [4],0.606
same,Body weight,"[1]; 0.5% ovotransferrin in diet, d 21",14.33 kg
same,ADFI (average daily feed intake),[1]; [5],1089.83 g/day
same,ADG (average daily gain),[1]; [5],700.22 g/day
same,G:F (gain:feed ratio),[1]; [5],0.643
same,Body weight,"[1]; 0.5% ovotransferrin in diet, d 28",19.23 kg
same,Fecal score,"[1]; 1% ovotransferrin in diet, d 0-7, scale ≤1 normal to 4 severe diarrhea",1.57
same,Fecal score,"[1]; 1% ovotransferrin in diet, d 0-14 (Phase 1), scale ≤1 normal to 4 severe diarrhea",1.61
same,Fecal score,"[1]; 1% ovotransferrin in diet, d 0-28 (Overall), scale ≤1 normal to 4 severe diarrhea",1.58
same,Body weight,"[1]; 1% ovotransferrin in diet, d 7",7.61 kg
same,ADFI (average daily feed intake),[1]; [6],654.76 g/day
same,ADG (average daily gain),[1]; [6],496.75 g/day
same,G:F (gain:feed ratio),[1]; [6],0.759
same,Fecal score,"[1]; 1% ovotransferrin in diet, d 7-14, scale ≤1 normal to 4 severe diarrhea",1.64
same,ADFI (average daily feed intake),[1]; [7],1043.29 g/day
same,ADG (average daily gain),[1]; [7],645.02 g/day
same,G:F (gain:feed ratio),[1]; [7],0.618
same,Body weight,"[1]; 1% ovotransferrin in diet, d 14",11.09 kg
same,ADFI (average daily feed intake),[1]; [8],1084.42 g/day
same,ADG (average daily gain),[1]; [8],584.42 g/day
same,G:F (gain:feed ratio),[1]; [8],0.539
same,Body weight,"[1]; 1% ovotransferrin in diet, d 21",15.18 kg
same,ADFI (average daily feed intake),[1]; [9],1390.69 g/day
same,ADG (average daily gain),[1]; [9],853.90 g/day
same,G:F (gain:feed ratio),[1]; [9],0.614
same,Body weight,"[1]; 1% ovotransferrin in diet, d 28",21.16 kg
